Reference: publication PMC4751342

Legend:
[1] = target: mouse Izumo1, immobilized AVEXIS bait (UniProt Q9D9J7); experiment: AVEXIS; settings: parent: est. 0.51; read off a plot
[2] = target: human Izumo1, immobilized AVEXIS bait (UniProt Q8IYV9); experiment: AVEXIS; settings: parent: est. 0.16; read off a plot
Chain of human Izumo1, immobilized AVEXIS bait (Q8IYV9 22-350): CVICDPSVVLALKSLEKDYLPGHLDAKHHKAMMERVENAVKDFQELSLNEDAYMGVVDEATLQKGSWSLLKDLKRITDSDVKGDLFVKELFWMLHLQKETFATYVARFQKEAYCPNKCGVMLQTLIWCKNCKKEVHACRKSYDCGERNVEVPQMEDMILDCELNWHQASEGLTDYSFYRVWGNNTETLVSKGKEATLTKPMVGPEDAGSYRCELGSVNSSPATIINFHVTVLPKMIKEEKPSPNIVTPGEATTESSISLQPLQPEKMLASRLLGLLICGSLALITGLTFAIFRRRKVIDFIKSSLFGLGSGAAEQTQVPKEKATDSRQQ

Chain of mouse Izumo1, immobilized AVEXIS bait (Q9D9J7 22-397): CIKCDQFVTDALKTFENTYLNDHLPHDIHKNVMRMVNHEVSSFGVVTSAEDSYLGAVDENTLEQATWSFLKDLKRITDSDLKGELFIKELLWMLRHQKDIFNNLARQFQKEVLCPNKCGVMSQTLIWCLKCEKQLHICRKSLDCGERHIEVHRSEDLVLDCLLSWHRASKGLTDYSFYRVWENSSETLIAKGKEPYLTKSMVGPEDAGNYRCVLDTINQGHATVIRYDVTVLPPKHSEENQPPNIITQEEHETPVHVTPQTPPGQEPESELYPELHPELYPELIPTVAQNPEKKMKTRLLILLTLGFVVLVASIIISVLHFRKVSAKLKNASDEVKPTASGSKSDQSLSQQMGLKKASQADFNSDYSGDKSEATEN
Chain of mouse Juno, wild type, AVEXIS prey (from UniProt Q9EQF4) Loop 3 (mouse Juno loop 3 replaced with the corresponding human residues) (Q9EQF4 20-222, change not shown): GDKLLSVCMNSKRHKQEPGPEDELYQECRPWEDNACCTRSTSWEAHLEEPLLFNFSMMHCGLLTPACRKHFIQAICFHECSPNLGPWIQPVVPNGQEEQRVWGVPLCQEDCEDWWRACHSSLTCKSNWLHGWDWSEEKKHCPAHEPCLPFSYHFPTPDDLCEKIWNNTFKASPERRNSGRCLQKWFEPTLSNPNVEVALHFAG
Chain of mouse Juno, wild type, AVEXIS prey (from UniProt Q9EQF4) Loop 2 (mouse Juno loop 2 replaced with the corresponding human residues) (Q9EQF4 20-222, change not shown): as above
Chain of mouse Juno, wild type, AVEXIS prey (from UniProt Q9EQF4) Loop1 (mouse Juno loop 1 replaced with the corresponding human residues) (Q9EQF4 20-222, change not shown): as above

Substance	response [1]	response [2]
mouse Juno, wild type, AVEXIS prey (from UniProt Q9EQF4) Loop1 (mouse Juno loop 1 replaced with the corresponding human residues)	0.22 A 485 nm	0.16 A 485 nm
mouse Juno, wild type, AVEXIS prey (from UniProt Q9EQF4) Loop 2 (mouse Juno loop 2 replaced with the corresponding human residues)	0.51 A 485 nm	0.17 A 485 nm
mouse Juno, wild type, AVEXIS prey (from UniProt Q9EQF4) Loop 3 (mouse Juno loop 3 replaced with the corresponding human residues)	0.52 A 485 nm	0.51 A 485 nm
